# Data: the nanobody polyreactivity screen of Harvey et al. (2022)
# Experiment: yeast display, Sf9 membrane polyspecificity reagent, FACS + sequencing; frameworks hold sequencing errors
# Outline: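 Nanobodies came from a synthetic yeast display library in Saccharomyces cerevisiae BJ5465, induced with galactose for 36–48 hours and stained for 1 hour at 4 °C with 10% biotinylated, detergent-solubilized Sf9 membrane reagent. Cells were enriched on streptavidin microbeads and then FACS-sorted, with low and high (top ~1%) gates set on anti-HA fluorescence for expression and streptavidin fluorescence for reagent binding. Each polyreactivity label reflects the gate a clone came from. Genes were amplified by colony PCR, sequenced by MiSeq 2 × 250 and filtered by CDR length.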
row,Sequence,polyreactivity (PSR sort gate)
1,QVQLVESGGGLVQAGGSLRLSCAASGRTFKAYAMGWYRQAPGKERELVAAISYSTTSTYYADSVKGRFTISRDNAKNTVYLQMNSLKPEDTAVYYCAVDYIIWYDGYLLYYWGQGTQVTVSS,low polyreactivity
2,QVQLVESGGGLVQAGGSLRLSCAASGRTFKDYAMGWYRPAPGKERELFAAISRGGSTNYADSVKGRFTISRDNAKNTVYLQVNSLKPEDTAVYYCARRYIVQSGDDYWGQGTQVTVSS,low polyreactivity
3,QVQLVESGGGLVQAGGSLRLSCAASGRTFKFYAMGWYRQAPGKERELVAAITSDGSTYYADSVKGRFTISRDNAKNTVYLQMNSQKPEDTAVYYCAKRSNTGRGYDYWGQGTQVTVSS,high polyreactivity
4,QVQLVESGGGLVQAGGSLRLSCAASGRTFKFYAMGWYRQAPGKERELVARITSNSGSTYYADSVKGRFTISRDTAKNTVYLQMTSLKPEDTAVYYCAVRGTLGSYWYTYYYWGQGTQVTVSS,high polyreactivity
5,QVQLVESGGGLVQAGGSLRLSCAASGRTFKHYAMGWYRQAPGKERELVAAITSGGSTYYADSVKGRFTISRDNAKNTVYLLMNSLIPEDTAVYYCNKESYFDTYRRYDSWGHGTQVTVSS,low polyreactivity
6,QVQLVESGGGLVQAGGSLRLSCAASGRTFKIHAMGWYRQATGKERELVAAISTSGGSTYYADSVKGRLTISRDNAKNTVYLQMNSLKPEDTAVYYCNAPVFRVGRPEYDYWGQGTQVTVSS,high polyreactivity
7,QVQLVESGGGLVQAGGSLRLSCAASGRTFKINAMGWYRPAPGKERELVAAISRGGGSTYADSVKGRFTISRDNAKNTVYLQMNSLKPEDTAVYYCAARVYGTRKINYSWGQGTQVTVSS,high polyreactivity
8,QVQLVESGGGLVQAGGSLRLSCAASGRTFKINAMGWYRQAPGKERELVAAIRRRGGSTYYADSVKGRFTISRDNAKNTVYLQMNSLKPEDTAVYYCAKTSWPYRVPSDSVAYDYWGQGTQVTVSS,low polyreactivity
9,QVQLVESGGGLVQAGGSLRLSCAASGRTFKIYTMGWYRPAPGKERELVAAISRGGSTYYADSVKGRFTISRDNAKNTVYLQMNSLKPEDTAVYYCAVDLYYLSSASTRQVRRDYWGQGTQVTVSS,high polyreactivity
10,QVQLVESGGGLVQAGGSLRLSCAASGRTFKLYAMGWYRQAPGKERALVAAITESGGSTYYADSVKGRFTISRDNAKNTVYLQMNSLKPEDTAVYYCAAYASAGTRGGYDYWGQGTQVTVSS,low polyreactivity
11,QVQLVESGGGLVQAGGSLRLSCAASGRTFKPYAMGWYRPAPGKDRELVAAISTRGGSTYFADSVKGRFTISRDNAKNTVYLQMNSLKPEDTAVYYCAATQPVRDYDYWGQGTQVTVSS,low polyreactivity
12,QVQLVESGGGLVQAGGSLRLSCAASGRTFKPYAMGWYRQAPGKERELVAAISTGGSTNYADSVKGRFTISRDNAKNTVYLQMKSLKPEDTAVYYCAALYSYFWLIIDYGYWGQGTQVTVSS,low polyreactivity
13,QVQLVESGGGLVQAGGSLRLSCAASGRTFKPYAMGWYRQAPGKERELVAVITSNGSSTYYADSVKGRFTISRDNAKNTVYLQMNSLKPEDTAVYYCATKLTYTLTSGAYAYDYWGQGTQVTLSS,low polyreactivity
14,QVQLVESGGGLVQAGGSLRLSCAASGRTFKQYAMGWYRQAPGKERELVAAISRTGGRTYYADSVKGRFTISRDNAKNTVYLQMNSLKPEDTAVYYCNAVYYWYKGDYWGQGTQVTVSS,high polyreactivity
15,QVQLVESGGGLVQAGGSLRLSCAASGRTFKRYAMGWYRQAPGKERELVAVITSGGSTYYADSVKGRFTISRDNAKNTVYLQMNSLKPEDTAVYYCAARYGVRIWHDALYGYWGQGTQVTVSS,high polyreactivity
16,QVQLVESGGGLVQAGGSLRLSCAASGRTFKTYSMGWYRQAPGKERELVASISGSGSSTYYADSVKGRFTISRDNAKNSVYLQMKSRKPEDTAVYYCNAARSQGYEYATYGYWGQGTQVTVSS,low polyreactivity
17,QVQLVESGGGLVQAGGSLRLSCAASGRTFKTYVMGWYRQAPGKERELVAGITSGGGSTYYADSVKGRFTISRDNAKITVYLQMNSLKPEDTAVYYCAAVSKDGFWVSYYYWGQGTQVTVSS,high polyreactivity
18,QVQLVESGGGLVQAGGSLRLSCAASGRTFKVNAMGWYRQAPGKERELVAAITYSGGGTYYADSVKGRFTISRDNAKNTVYLQMNSLKPEDTAVYYCAAPVYTWYHRYDYWGQGTQVTVSS,high polyreactivity
19,QVQLVESGGGLVQAGGSLRLSCAASGRTFKVYAMGWYRQAPWKERDLVAAISFSGGSTYYADSVKGRFTISRDNAKNTDYLQMNSLKPEDTAVYYCAAKRYGEYRARGYYYWGQVTQVTVSS,high polyreactivity
20,QVQLVESGGGLVQAGGSLRLSCAASGRTFKYNAMGWYIQAPGKERELVAAISSRGGSTYYADSVKGRFTISRDNAKNTVYLQMNSLKPEDTAVYYCAKATSSSEYGYDYWGQGTQVTVSS,high polyreactivity
21,QVQLVESGGGLVQAGGSLRLSCAASGRTFKYNAMGWYRQAPGKERELVAAISNRGGSTYYADSVKGRFTISRDNAKNTVYLQMNSLKPEDTAVYYCAVRAVYRWSSGYGYWGQGTQVTVSS,high polyreactivity
22,QVQLVESGGGLVQAGGSLRLSCAASGRTFKYNAMGWYRQAPGKERELVAVISYDGSTYYADSVKGRFTISRDNAKNTVYLQMNSLKPEDTAVYYCAARYLDVRPYYYWGQGTQVTVSS,high polyreactivity

row,Sequence,polyreactivity (PSR sort gate)
1,QVQLVESGGGLVQAGGSLRLSCAASGRTFKYYAMGWYRQAPGKERELVAAISSGGSTYYADSVKGRFTISRDNAKNTVYLQMNSLKPEDTAVYYCAAYSSYFRRRKWGYDYWGQGTQVTVSS,high polyreactivity
2,QVQLVESGGGLVQAGGSLRLSCAASGRTFKYYAMGWYRQAPGKERELVAAISWSGSSTNYADSVKGRFTISRDNAKNTVYLQMNSLKPEDTAVYYCAAATYRQFTGTYDYWGQGTQVTVSS,high polyreactivity
3,QVQLVESGGGLVQAGGSLRLSCAASGRTFKYYAMGWYRQAPGKERELVAGITGRGGGTYYADSVKGRFTISRDNAKNTVYLQMNSLKPEDTAVYYCAAERIYWKYYEYDYWGQGTEVTVSS,high polyreactivity
4,QVQLVESGGGLVQAGGSLRLSCAASGRTFKYYTMGWYRQAPGKERELVAAISASGGSTYYADSVKGRFTISRDNAKNTVYLQMNSLKPEDTAVYYCAKGANRAIHKQPTRSRLDSWGQGTQVTVSS,high polyreactivity
5,QVQLVESGGGLVQAGGSLRLSCAASGRTFLFNGMGWYRQAPGKERELVASITRGGSTYADSVKGRFTISRDNAKNTGYVQMNSLNPEDTAVYDCNAYFWFPYNYWGQGTQVTVSS,high polyreactivity
6,QVQLVESGGGLVQAGGSLRLSCAASGRTFLGYAMGCYRQAPGKERELVATITKRGSSTYYADSVKGRFTISRDNANNTVYLQMTSLKPEDTAVYYCAARRYPRRFAIDYWGQGTQVTVSS,high polyreactivity
7,QVQLVESGGGLVQAGGSLRLSCAASGRTFLIYAMGWYRQAPGKERELVAAINFSGGNTYYADSVKGRFTISRDNAKNTVYLQMNSLKPEDTAVYYCAARYRIGNNGYEYWGQGTQVTVSS,low polyreactivity
8,QVQLVESGGGLVQAGGSLRLSCAASGRTFLLNAMGWYRQAPGKERELVAAITRSGVITYYADSVKGRFTISRDNAKNTVYLQMNSLKPEDTAVYYCAAQLRYSYLRPSYYYWGQGTQVTVSS,high polyreactivity
9,QVQLVESGGGLVQAGGSLRLSCAASGRTFLLYAMGWYRQAPGKERELVAAITWGGGSTYYADSVKGRFTISRDNAKNTVYLQMNSLKPEDTAVYYCAADGSWHGYGYWGQGTQVTVSS,low polyreactivity
10,QVQLVESGGGLVQAGGSLRLSCAASGRTFLPYAMGWYRQPPWKERELVAAISYRGVSTYYADSVKGRFTISRDNAKYSVYLQMNSLKAEDTAVYYCAARSWANYDFWGHGTQVTVSS,high polyreactivity
11,QVQLVESGGGLVQAGGSLRLSCAASGRTFLRNAMGWYRPAPGKERELVAAITSSGGRTYYADSVKGRFTISRDNAKNTVYLQMNSLKPEDTAVYYCATDTGWPGRDYWGQGPQVTVSS,high polyreactivity
12,QVQLVESGGGLVQAGGSLRLSCAASGRTFLRYAMGWYRQAPGKERELVAAITYGGRTNYADSVKGRFTISRDNAKNTVYLQMNSLKPEDTAVYYCAADRTYYYGLRVYYWGQGTQVTVSS,high polyreactivity
13,QVQLVESGGGLVQAGGSLRLSCAASGRTFLSNAMGWYRQEPGKERELVAAINSGDSTYYAYSVKGRFTISRYNAKNTVYLQMNSLKPEDTAVYYCAAAFYYRRMYYWGKGTQVTVSS,high polyreactivity
14,QVQLVESGGGLVQAGGSLRLSCAASGRTFLSYAMGWYRQAPGKEREFVASITLSGGSTYYADSVKGRFTISRDNAKNTVYLQMNSLKPEDTAVYYCNAELYWLPYDYWGQGTQVTVSS,low polyreactivity
15,QVQLVESGGGLVQAGGSLRLSCAASGRTFLSYAMGWYRQAPGKERELVATITRRGGSTYYADSVKGRFTISRDNAKNTVYLQMNSLKPEDTAVYYCAAYYRQYSSSEFGYWGQGTQVTVSS,high polyreactivity
16,QVQLVESGGGLVQAGGSLRLSCAASGRTFLSYTMGWYRQATGKERELVAAITTSGGSTNYADSVKGRFSISRDTAKNTVYLQMNRLKPEDTAVYYCADEWSVYFNDPRSDYWGQGTQVTVSS,high polyreactivity
17,QVQLVESGGGLVQAGGSLRLSCAASGRTFLTYAMGWYRQAPGKERELVAAITDGDSTNYADSVKGRFTISRDNAKNTVYLQMNSLKPEDTAVYYCNADSLAYRYYYWGKGTQVTVSS,high polyreactivity
18,QVQLVESGGGLVQAGGSLRLSCAASGRTFLVNAMGWYRQAPGKERELVAVITRGGSTNYADSVKGRFTISRDNAKNTVYLQMNSLKPEDTAVYYCAAEAYYGLWMDYWGQGTQVTVSS,low polyreactivity
19,QVQLVESGGGLVQAGGSLRLSCAASGRTFLVYAMGWYRQAPGKDRELVAAISSDGSTHYADSVKGRFTISRDNAKKTVYLQMNSLHPEDTAVYYCARDYYAFSYLYDYWGQGTQVTVSS,low polyreactivity
20,QVQLVESGGGLVQAGGSLRLSCAASGRTFLVYARGWYRQAPGKERELVATIRASTGSTYADSVKGRFTISRDNAKNTVYLQMNSLKPEDTAVYYCAAQPRYRHQTYNYWGQGTQVTVSS,high polyreactivity
21,QVQLVESGGGLVQAGGSLRLSCAASGRTFLVYTMGWYRQAPGKERELVAAISWSDGSTYYADSVKGRFTISRDNAKNTVYLQMNSLKPEDTAVYYCAARRTGYLYRYGYWGQGTQVTVSS,low polyreactivity
